Data set [1] deals with T1, Dda 1993 K358I K358I (Enterobacteria phage T4) (UniProt P32270).
T1 sequence: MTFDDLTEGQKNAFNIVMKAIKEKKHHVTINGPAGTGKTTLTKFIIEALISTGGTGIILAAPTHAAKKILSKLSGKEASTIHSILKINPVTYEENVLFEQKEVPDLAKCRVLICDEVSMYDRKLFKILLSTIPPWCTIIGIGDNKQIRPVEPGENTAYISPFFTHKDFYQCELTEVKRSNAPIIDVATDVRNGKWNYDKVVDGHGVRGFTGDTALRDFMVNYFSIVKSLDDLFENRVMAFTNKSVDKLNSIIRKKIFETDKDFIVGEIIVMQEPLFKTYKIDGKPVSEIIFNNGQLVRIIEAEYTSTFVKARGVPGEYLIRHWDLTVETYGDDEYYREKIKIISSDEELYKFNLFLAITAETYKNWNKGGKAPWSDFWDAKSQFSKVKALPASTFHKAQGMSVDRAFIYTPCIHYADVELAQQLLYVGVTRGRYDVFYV
The following applies: nanopore translocation, FLO-MIN106; background mutations not given.

The target in data set [2] is T2, Dda 1993 K358L K358L (Enterobacteria phage T4) (UniProt P32270).
T2 sequence: T1 sequence with I358L
The following applies: nanopore translocation, FLO-MIN106; background mutations not given.

For data set [3], the target named is T3, Dda 1993 C114M C114M (Enterobacteria phage T4) (UniProt P32270).
T3 sequence: T1 sequence with C114M, I358K
The following applies: nanopore translocation; background mutations not given.

In data set [4] the target is T4, Dda 1993 C114I C114I (Enterobacteria phage T4) (UniProt P32270).
T4 sequence: T1 sequence with C114I, I358K
The following applies: nanopore translocation; background mutations not given.

Data set [5] concerns the target T5, Dda 1993 C114S C114S (Enterobacteria phage T4) (UniProt P32270).
T5 sequence: T1 sequence with C114S, I358K
The following applies: nanopore translocation; background mutations not given.

Data set [6] addresses T6, Dda 1993 C114G C114G (Enterobacteria phage T4) (UniProt P32270).
T6 sequence: T1 sequence with C114G, I358K
The following applies: nanopore translocation; background mutations not given.

Changes are numbered by the printed parent chain.

As for “barcoded 3.6 kb DNA analyte ligated to sequencing Y adaptor”, the activity (bps speed delta vs control) is -40.2 in data set [1]; -42.7 in data set [2]; 81.8 in data set [3]; 93.7 in data set [4]; -7.28 in data set [5]; -11.3 in data set [6].
